From patent US20060292149A1 (LIFE SCIENCES RESEARCH PARTNERS, published 2006)
Changes are numbered by the printed parent chain.

Experiments:
[1] = biological target: Factor VIII in a pool of normal human plasma (human), P00451; experiment: cell-based or functional assay
[2] = biological target: recombinant FVIII (human), P00451; experiment: cell-based or functional assay
recombinant FVIII = biological target: T1, recombinant FVIII (human, UniProt P00451 20-2351); experiment: SPR (BIAcore), antibody immobilised on CM5 chip, FVIII infused
T1 chain: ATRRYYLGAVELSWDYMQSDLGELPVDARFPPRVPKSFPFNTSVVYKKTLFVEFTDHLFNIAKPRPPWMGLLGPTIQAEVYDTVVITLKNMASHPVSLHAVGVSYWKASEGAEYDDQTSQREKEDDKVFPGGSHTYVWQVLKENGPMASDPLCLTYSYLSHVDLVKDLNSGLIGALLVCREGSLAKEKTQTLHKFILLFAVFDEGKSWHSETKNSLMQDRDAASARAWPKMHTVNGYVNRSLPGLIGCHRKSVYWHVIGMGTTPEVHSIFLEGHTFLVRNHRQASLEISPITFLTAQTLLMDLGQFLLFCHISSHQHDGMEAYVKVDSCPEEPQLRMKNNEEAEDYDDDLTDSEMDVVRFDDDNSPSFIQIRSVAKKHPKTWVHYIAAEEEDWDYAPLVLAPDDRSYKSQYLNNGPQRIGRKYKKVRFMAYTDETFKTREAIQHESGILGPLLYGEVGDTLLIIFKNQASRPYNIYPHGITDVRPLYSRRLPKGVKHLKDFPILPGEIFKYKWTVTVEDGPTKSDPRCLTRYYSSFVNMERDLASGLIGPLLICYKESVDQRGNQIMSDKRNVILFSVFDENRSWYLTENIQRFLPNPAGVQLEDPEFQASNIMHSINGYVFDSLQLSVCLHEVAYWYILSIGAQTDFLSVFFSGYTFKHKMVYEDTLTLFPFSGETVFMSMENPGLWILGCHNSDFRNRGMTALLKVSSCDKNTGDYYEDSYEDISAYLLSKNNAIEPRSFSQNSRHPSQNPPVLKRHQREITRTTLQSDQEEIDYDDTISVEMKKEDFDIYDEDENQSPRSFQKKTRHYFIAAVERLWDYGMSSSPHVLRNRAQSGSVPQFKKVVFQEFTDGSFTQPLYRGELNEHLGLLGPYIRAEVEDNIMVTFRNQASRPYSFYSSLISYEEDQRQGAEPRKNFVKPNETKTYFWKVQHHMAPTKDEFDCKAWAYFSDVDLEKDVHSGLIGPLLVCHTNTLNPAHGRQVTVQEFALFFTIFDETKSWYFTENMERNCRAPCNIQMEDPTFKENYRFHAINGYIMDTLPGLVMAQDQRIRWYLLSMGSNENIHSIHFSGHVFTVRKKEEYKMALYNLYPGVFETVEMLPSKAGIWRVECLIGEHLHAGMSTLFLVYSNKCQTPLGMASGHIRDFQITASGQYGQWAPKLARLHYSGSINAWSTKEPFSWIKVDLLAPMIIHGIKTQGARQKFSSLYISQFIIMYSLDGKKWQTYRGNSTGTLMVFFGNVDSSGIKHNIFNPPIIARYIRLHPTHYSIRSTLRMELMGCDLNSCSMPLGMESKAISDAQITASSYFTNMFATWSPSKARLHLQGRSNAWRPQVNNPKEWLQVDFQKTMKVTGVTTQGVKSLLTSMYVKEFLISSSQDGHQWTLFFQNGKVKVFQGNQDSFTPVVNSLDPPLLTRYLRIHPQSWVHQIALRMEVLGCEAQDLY

B1: Krix-1 (human monoclonal antibody KRIX-1 produced in a lymphoblastoid cell line) (antibody, V domains shown)
VH: QVQLVQSGAEVKKPGASVKVSCKTSGYNFTGYSASGHIFTAYSVHWVRQAPGQGLEWMGRINPNSGATDYAHKFQGRVTMSRDTSISTAYMELSRLTSDDTAMYYCARADNYFDIVTGYTSHYFDYWGRGTLVTVSSASTKGPSVF
VL: EIVLTQSPGTLSLSPGERATLSCRASQSVASAYLAWYQQKPGQAPRLLIYGASSRATDIPHRFSGSGSGTDFTLTISRLEPEDFAVYYCQQYGTSALLTFGGGTKVEIKRTVAAPSVFIFPPS
modifications: here or on the partner: N-linked glycosylation site at Asn47-Thr49, glycosylated as produced by the human lymphoblastoid cell line
inhibition of FVIII activity in plasma (Bethesda assay, chromogenic FVIII assay) [1]: 90% | inhibition of FVIII activity in plasma (chromogenic assay) [1]: 90%

B2: CHO-recKRIX-1 (recombinant Krix-1 produced in CHO cells) (antibody, V domains shown)
VH: B1 VH
VL: B1 VL
modifications: here or on the partner: N-linked glycosylation site at Asn47-Thr49, glycosylated as produced by CHO cells
maximal inhibition of FVIII activity in large excess of antibody (chromogenic assay) [1]: 75 to 85%

B3: deglycosylated KRIX-1 (KRIX-1 treated with N-glycosidase-F) (antibody, IgG4, V domains shown)
VH: B1 VH
VL: B1 VL
modifications: here or on the partner: N-linked glycans removed by N-glycosidase-F (2 U/ml, 37 C, 72 h)
inhibition of FVIII activity in plasma (chromogenic assay) [1]: 50% | maximal inhibition (plateau inhibition) of FVIII activity in plasma (Bethesda assay, chromogenic FVIII assay) [1]: 50%

B4: RHD5 (human monoclonal antibody from the lymphoblastoid cell line RHD5) (antibody, V domains shown)
VH: QVQLVQSGAEVKKPGSSVMVSCKASGGTFSSFGISWVRQAPGQGLEWVGGIIPIFGTANTARNFQNRVTITADEFTSTAYIRLRSLRSEDTAVYYCVGGRDAYSFDGFDVWGQGTMVTVSSASTKGPSVFP
VL: SSGLTQPHSVSVSPGQTANITCSRDKLGHKFASWYQQKPGQSPALLIYQDSKRPSGIPERFSGSNSGNTATLTISGTQAMDEADYYCQAWDNTTAVFGGGTKLTVLSQPKAAPSVTLFPPS
inhibition of FVIII activity at a final concentration of RHD5 of 100 microgram/ml (plasma) [1]: 97% | inhibition of FVIII activity at a final concentration of RHD5 of 100 microgram/ml (full length recombinant FVIII) [2]: 98%

B5: CHO-recKRIX-1 (recombinant Krix-1 produced in CHO cells) (antibody, V domains shown)
VH: QVQLVQSGAEVKKPGASVKVSCKTSGYNFTGYSASGHIFTAYSVHWVRQAPGQGLEWMGRINPNSGATDYAHKFQGRVTMSRDTSISTAYMELSRLTSDDTAMYYCARADNYFDIVTGYTSHYFDYWGRGTLVTVSS
VL: EIVLTQSPGTLSLSPGERATLSCRASQSVASAYLAWYQQKPGQAPRLLIYGASSRATDIPHRFSGSGSGTDFTLTISRLEPEDFAVYYCQQYGTSALLTFGGGTKVEIKR
modifications: N-linked glycosylation site at Asn47-Thr49, glycosylated as produced by CHO cells
notes: also called native CHO-rec-KRIX-1; rec-mAb Krix-1
Kd (recombinant FVIII): 0.14 nM

B6: CHO-recKRIX-1Q (Krix-1 with Asn47 changed to Gln in the heavy chain, produced in CHO cells) (antibody, IgG4, V domains shown)
VH: B5 VH with N28Q
VL: B5 VL
notes: IgG4 kappa; The mutation disrupts the N-linked glycosylation site at Asn47-Thr49; also called Asn47Gln Krix-1; rec-mAb-KRIX-1Q
Kd (recombinant FVIII): 0.17 nM

B7: CHO-recKRIX-1A (Krix-1 with Thr49 changed to Ala in the heavy chain, produced in CHO cells) (antibody, IgG4, V domains shown)
VH: B5 VH with T30A
VL: B5 VL
notes: IgG4 kappa; The mutation disrupts the N-linked glycosylation site at Asn47-Thr49
Kd (recombinant FVIII): 0.13 nM
